From publication PMC6879718, “Mycobacterial OtsA Structures Unveil Substrate Preference Mechanism and Allosteric Regulation by 2-Oxoglutarate and 2-Phosphoglycerate” (mBio, 2019)

What was measured:
[1] = system: O=C[C@H](O)[C@@H](O)[C@H](O)[C@H](O)COP(=O)(O)O; assay: OtsA kinetic parameters, continuous colorimetric coupled assay (L319I); format: biochemical, Mycobacterium thermoresistibile; conditions: other: L319I; G6P fixed at 10 mM for NDP-glucose, ADP-glucose […] for G6P; pH 7.5; 37.0 °C
[2] = system: Nc1ncnc2c1ncn2[C@@H]1O[C@H](COP(=O)(O)OP(=O)(O)O[C@H]2O[C@H](CO)[C@@H](O)[C@H](O)[C@H]2O)[C@@H](O)[C@H]1O; assay: as above; format: biochemical, Mycobacterium thermoresistibile; conditions: other: L319I; G6P fixed at 10 mM for NDP-glucose, ADP-glucose […] for G6P; pH 7.5; 37.0 °C
[3] = system: Nc1nc2c(ncn2[C@@H]2O[C@H](COP(=O)(O)OP(=O)(O)O[C@H]3O[C@H](CO)[C@@H](O)[C@H](O)[C@H]3O)[C@@H](O)[C@H]2O)c(=O)[nH]1; assay: as above; format: biochemical, Mycobacterium thermoresistibile; conditions: other: L319I; G6P fixed at 10 mM for NDP-glucose, ADP-glucose […] for G6P; pH 7.5; 37.0 °C
[4] = system: O=C[C@H](O)[C@@H](O)[C@H](O)[C@H](O)COP(=O)(O)O; assay: OtsA kinetic parameters, continuous colorimetric coupled assay (L319I, E367L); format: biochemical, Mycobacterium thermoresistibile; conditions: other: L319I, G6P fixed at 10 mM for NDP-glucose, ADP-glucose […] for G6P, pH 7.5, 37.0 °C
[5] = system: Nc1ncnc2c1ncn2[C@@H]1O[C@H](COP(=O)(O)OP(=O)(O)O[C@H]2O[C@H](CO)[C@@H](O)[C@H](O)[C@H]2O)[C@@H](O)[C@H]1O; assay: as above; format: biochemical, Mycobacterium thermoresistibile; conditions: other: L319I, G6P fixed at 10 mM for NDP-glucose, ADP-glucose […] for G6P, pH 7.5, 37.0 °C
[6] = system: Nc1nc2c(ncn2[C@@H]2O[C@H](COP(=O)(O)OP(=O)(O)O[C@H]3O[C@H](CO)[C@@H](O)[C@H](O)[C@H]3O)[C@@H](O)[C@H]2O)c(=O)[nH]1; assay: as above; format: biochemical, Mycobacterium thermoresistibile; conditions: other: L319I, G6P fixed at 10 mM for NDP-glucose, ADP-glucose […] for G6P, pH 7.5, 37.0 °C
[7] = system: O=C[C@H](O)[C@@H](O)[C@H](O)[C@H](O)COP(=O)(O)O; assay: OtsA kinetic parameters, continuous colorimetric coupled assay (L319I, V363F, E367L); format: biochemical, Mycobacterium thermoresistibile; conditions: other: L319I, G6P fixed at 10 mM for NDP-glucose, ADP-glucose […] for G6P, pH 7.5, 37.0 °C
[8] = system: Nc1ncnc2c1ncn2[C@@H]1O[C@H](COP(=O)(O)OP(=O)(O)O[C@H]2O[C@H](CO)[C@@H](O)[C@H](O)[C@H]2O)[C@@H](O)[C@H]1O; assay: as above; format: biochemical, Mycobacterium thermoresistibile; conditions: other: L319I, G6P fixed at 10 mM for NDP-glucose, ADP-glucose […] for G6P, pH 7.5, 37.0 °C
[9] = system: Nc1nc2c(ncn2[C@@H]2O[C@H](COP(=O)(O)OP(=O)(O)O[C@H]3O[C@H](CO)[C@@H](O)[C@H](O)[C@H]3O)[C@@H](O)[C@H]2O)c(=O)[nH]1; assay: as above; format: biochemical, Mycobacterium thermoresistibile; conditions: other: L319I, G6P fixed at 10 mM for NDP-glucose, ADP-glucose […] for G6P, pH 7.5, 37.0 °C
[10] = system: O=C[C@H](O)[C@@H](O)[C@H](O)[C@H](O)COP(=O)(O)O; assay: OtsA kinetic parameters, continuous colorimetric coupled assay (R213E); format: biochemical, Mycobacterium thermoresistibile; conditions: other: R213E; G6P fixed at 10 mM for NDP-glucose, ADP-glucose […] for G6P; pH 7.5; 37.0 °C
Experimental: (§1) Formation of T6P was assessed by a continuous colorimetric assay that followed the release of NDP by measuring the oxidation of NADH at 340 nm, in the presence of pyruvate kinase and lactate dehydrogenase. All reagents used were obtained from Sigma-Aldrich. The enzymatic reactions (200-μl reaction mixture) were performed at 37°C, and the reaction mixtures contained 50 mM Tris (pH 7.5), 200 mM NaCl, 10 mM MgCl2, 50 mM KCl, 0.3 mM NADH, 2.5 mM phosphoenolpyruvate (PEP), 10 units of pyruvate kinase-lactate dehydrogenase, 0.1 μM enzyme, and various concentrations of G6P and NDP-glucose to determine kinetic parameters.

[11] = system: Nc1ncnc2c1ncn2[C@@H]1O[C@H](COP(=O)(O)OP(=O)(O)O[C@H]2O[C@H](CO)[C@@H](O)[C@H](O)[C@H]2O)[C@@H](O)[C@H]1O; assay: as above; format: biochemical, Mycobacterium thermoresistibile; conditions: other: R213E; G6P fixed at 10 mM for NDP-glucose, ADP-glucose […] for G6P; pH 7.5; 37.0 °C
Experimental: as §1

[12] = system: O=C[C@H](O)[C@@H](O)[C@H](O)[C@H](O)COP(=O)(O)O; assay: OtsA kinetic parameters, continuous colorimetric coupled assay (R384E); format: biochemical, Mycobacterium thermoresistibile; conditions: other: R384E; G6P fixed at 10 mM for NDP-glucose, ADP-glucose […] for G6P; pH 7.5; 37.0 °C
Experimental: as §1

[13] = system: Nc1ncnc2c1ncn2[C@@H]1O[C@H](COP(=O)(O)OP(=O)(O)O[C@H]2O[C@H](CO)[C@@H](O)[C@H](O)[C@H]2O)[C@@H](O)[C@H]1O; assay: as above; format: biochemical, Mycobacterium thermoresistibile; conditions: other: R384E; G6P fixed at 10 mM for NDP-glucose, ADP-glucose […] for G6P; pH 7.5; 37.0 °C
Experimental: as §1

[14] = system: O=C[C@H](O)[C@@H](O)[C@H](O)[C@H](O)COP(=O)(O)O; assay: OtsA kinetic parameters, continuous colorimetric coupled assay (V363F); format: biochemical, Mycobacterium thermoresistibile; conditions: other: V363F; G6P fixed at 10 mM for NDP-glucose, ADP-glucose […] for G6P; pH 7.5; 37.0 °C
[15] = system: Nc1ncnc2c1ncn2[C@@H]1O[C@H](COP(=O)(O)OP(=O)(O)O[C@H]2O[C@H](CO)[C@@H](O)[C@H](O)[C@H]2O)[C@@H](O)[C@H]1O; assay: as above; format: biochemical, Mycobacterium thermoresistibile; conditions: other: V363F; G6P fixed at 10 mM for NDP-glucose, ADP-glucose […] for G6P; pH 7.5; 37.0 °C
[16] = system: Nc1nc2c(ncn2[C@@H]2O[C@H](COP(=O)(O)OP(=O)(O)O[C@H]3O[C@H](CO)[C@@H](O)[C@H](O)[C@H]3O)[C@@H](O)[C@H]2O)c(=O)[nH]1; assay: as above; format: biochemical, Mycobacterium thermoresistibile; conditions: other: V363F; G6P fixed at 10 mM for NDP-glucose, ADP-glucose […] for G6P; pH 7.5; 37.0 °C
[17] = molecular target: Mycobacterium thermoresistibile OtsA (Mycobacterium thermoresistibile (DSM 44167)); assay: crystal structure; apo form in space group I4(1)22, ADP-G6P ternary complex in P6(2)22, one protomer per asymmetric unit each; sitting-drop vapor diffusion at 18°C
[18] = molecular target: Mycobacterium thermoresistibile OtsA (Mycobacterium thermoresistibile (DSM 44167)); assay: not stated; in solution; the paper does not tell by which method the tetramer was seen

## M. thermoresistibile OtsA L319I (Mycolicibacterium thermoresistibile ATCC 19527; L319I)
[1]
  Km: 3300 ± 200 µM
  kcat: 6.4 ± 0.2 s⁻¹
  kcat/Km: 1900 ± 200 M⁻¹ s⁻¹
[2]
  Km: 710 ± 180 µM
  kcat: 8.4 ± 0.7 s⁻¹
  kcat/Km: 12000 ± 2000 M⁻¹ s⁻¹
[3]
  Km: 350 ± 40 µM
  kcat: 3.1 ± 0.1 s⁻¹
  kcat/Km: 8900 ± 1400 M⁻¹ s⁻¹

## M. thermoresistibile OtsA L319I, E367L (Mycolicibacterium thermoresistibile ATCC 19527; E367L/L319I)
[4]
  Km: 3700 ± 200 µM
  kcat: 21 ± 1 s⁻¹
  kcat/Km: 5700 ± 500 M⁻¹ s⁻¹
[5]
  Km: 630 ± 40 µM
  kcat: 14 ± 1 s⁻¹
  kcat/Km: 22000 ± 3000 M⁻¹ s⁻¹
[6]
  Km: 700 ± 50 µM
  kcat: 9.2 ± 0.4 s⁻¹
  kcat/Km: 13000 ± 2000 M⁻¹ s⁻¹

## M. thermoresistibile OtsA L319I, V363F, E367L (Mycolicibacterium thermoresistibile ATCC 19527; E367L/L319I/V363F)
[7]
  Km: 3200 ± 200 µM
  kcat: 17 ± 1 s⁻¹
  kcat/Km: 5300 ± 600 M⁻¹ s⁻¹
[8]
  Km: 1300 ± 100 µM
  kcat: 19 ± 1 s⁻¹
  kcat/Km: 15000 ± 2000 M⁻¹ s⁻¹
[9]
  Km: 900 ± 60 µM
  kcat: 16 ± 1 s⁻¹
  kcat/Km: 18000 ± 2000 M⁻¹ s⁻¹

## M. thermoresistibile OtsA R213E (Mycolicibacterium thermoresistibile ATCC 19527; R213E)
[10]
  Km: 3300 ± 300 µM
  kcat: 33 ± 2 s⁻¹
  kcat/Km: 10000 ± 1000 M⁻¹ s⁻¹
[11]
  Km: 310 ± 10 µM
  kcat: 56 ± 2 s⁻¹
  kcat/Km: 180000 ± 13000 M⁻¹ s⁻¹

## M. thermoresistibile OtsA R384E (Mycolicibacterium thermoresistibile ATCC 19527; R384E)
[12]
  Km: 2900 ± 200 µM
  kcat: 2.1 ± 0.2 s⁻¹
  kcat/Km: 770 ± 50 M⁻¹ s⁻¹
[13]
  Km: 1900 ± 200 µM
  kcat: 3.2 ± 0.1 s⁻¹
  kcat/Km: 1700 ± 200 M⁻¹ s⁻¹

## M. thermoresistibile OtsA V363F (Mycolicibacterium thermoresistibile ATCC 19527; V363F)
[14]
  Km: 3100 ± 200 µM
  kcat: 19 ± 1 s⁻¹
  kcat/Km: 6100 ± 700 M⁻¹ s⁻¹
[15]
  Km: 600 ± 30 µM
  kcat: 11 ± 1 s⁻¹
  kcat/Km: 18000 ± 2000 M⁻¹ s⁻¹
[16]
  Km: 740 ± 80 µM
  kcat: 14 ± 1 s⁻¹
  kcat/Km: 19000 ± 3000 M⁻¹ s⁻¹

## Mycobacterium thermoresistibile OtsA (enzyme)
[17]
  stoichiometry N: 4
[18]
  stoichiometry N: 4
